Results taken from publication PMC10723718 (PLOS Genetics, 2023).

B1: His6-tagged PrrBC (cytoplasmic region of PrrB comprising C-terminal residues 200 to 446) (domain or fragment)
chain: ASEAIEIAEAMRGMLQRIWNEQNRTKEALASARDFAAVSSHELRTPLTAMRTNLEVLSTLDLPDDQRKEVLNDVIRTQSRIEATLSALERLAQGELSTSDDHVPVDITDLLDRAAHDAARIYPDLDVSLVPSPTCIIVGLPAGLRLAVDNAIANAVKHGGATLVQLSAVSSRAGVEIAIDDNGSGVPEGERQVVFERFSRGSTASHSGSGLGLALVAQQAQLHGGTASLENSPLGGARLVLRLPGPS
notes: PrrB, sensor kinase, M. tuberculosis, cytoplasmic domain residues 200-446 (247 amino acids); also called His6-PrrBC; His-PrrBC; not shown: His6, N-terminal, kept
B2: GST-PhoRC (domain or fragment)
chain: TAAAIGAGQLDRRVPQWHPRTEVGRLSLALNGMLAQIQRAVASAESSAEKARDSEDRMRQFITDASHELRTPLTTIRGFAELYRQGAARDVGMLLSRIESEASRMGLLVDDLLLLARLDAHRPLELCRVDLLALASDAAHDARAMDPKRRITLEVLDGPGTPEVLGDESRLRQVLRNLVANAIQHTPESADVTVRVGTEGDDAILEVADDGPGMSQEDALRVFERFYRADSSRARASGGTGLGLSIVDSLVAAHGGAVTVTTALGEGCCFRVSLPRVSDVDQLSLTPVVPGPP
notes: PhoR, sensor kinase, M. tuberculosis, cytoplasmic domain PhoRC, residues 193-485 (C-terminal 293 residues); also called GST-tagged PhoRC

How the values were obtained:
GST-PhoP = molecular target: T1, GST-PhoP (M. tuberculosis, UniProt P71814 1-247); test: pull-down; settings: both partners purified
T1 construct: PhoP, response regulator, M. tuberculosis; also called GST-tagged PhoP

His6-PhoP = molecular target: T2, His6-PhoP (M. tuberculosis, UniProt P71814 1-247); test: pull-down; settings: both partners purified
T2 construct: PhoP, response regulator, M. tuberculosis, full length (247 amino acids); also called His-PhoP; not shown: His6, N-terminal, kept

| Binder | binding result (GST-PhoP) | binding result (His6-PhoP) |
| --- | --- | --- |
| B1 | binds | – |
| B2 | – | binds |
